According to PMC12097149:

Experiments:
[1] = biological target: mouse CARMIL2 Q538E tagged with a Twin-Strep-tag at the N terminus (CARMIL2^QE-OST) (mouse); experiment: affinity purification with mass spectrometry; OST-tagged CARMIL2 purified on Strep-Tactin Sepharose beads from lysates of short-term expanded mouse CD4+ T cells, untreated or treated with pervanadate for 2, 5 and 10 min; label-free quantitative MS, interaction stoichiometries
[2] = biological target: mouse CARMIL2 Q538E (untagged, CARMIL2^QE) (mouse); experiment: co-IP; Immunoprecipitation with anti-CARMIL2 (EM-53) from lysates of short-term expanded mouse CD8+ (OT-I) and CD4+ T cells (Carmil2^QE, Carmil2^QE Cd28-/-), immunoblot with anti-CARMIL2 and anti-CARD11; cells untreated or treated with pervanadate for 2 and 5 min at 37°C

B1: mouse CARD11 (natural protein)
chain: MPGGGPAMDDYMETLKDEEEALWDNVECNRHMLSRYINPAKLTPYLRQCKVIDEQDEDEVLNAPMLPSKINRAGRLLDILHTKGQRGYVVFLESLEFYYPELYKLVTGKEPTRRFSTIVVEEGHEGLTHFLMNEVIKLQQQVKAKDLQRCELLAKSRQLEDEKKQLSLIRVELLTFQERYYKMKEERDSYNDELVKVKDDNYNLAMRYAQLSEEKNMAVMRSRDLQLEIDQLKHRLNKMEEECKLERNQSLKLKNDIENRPRKEQVLELERENEMLKTKIQELQSIIQAGKRSLPDSDKAILDILEHDRKEALEDRQELVNKIYNLQEEVRQAEELRDKYLEEKEDLELKCSTLGKDCEMYKHRMNTVMLQLEEVERERDQAFHSRDEAQTQYSQCLIEKDKYRKQIRELEEKNDEMRIEMVRREACIVNLESKLRRLSKDNGSLDQSLPRHLPATIISQNLGDTSPRTNGQEADDSSTSEESPEDSKYFLPYHPPRRRMNLKGIQLQRAKSPISMKQASEFQALMRTVKGHEEDFTDGSPSSSRSLPVTSSFSKMQPHRSRSSIMSITAEPPGNDSIVRRCKEDAPHRSTVEEDNDSCGFDALDLDDENHERYSFGPPSIHSSSSSHQSEGLDAYDLEQVNLMLRKFSLERPFRPSVTSGGHVRGTGPLVQHTTLNGDGLITQLTLLGGNARGSFIHSVKPGSLAERAGLREGHQLLLLEGCIRGERQSVPLDACTKEEARWTIQRCSGLITLHYKVNHEGYRKLLKEMEDGLITSGDSFYIRLNLNISSQLDACSMSLKCDDVVHVLDTMYQDRHEWLCARVDPFTDQDLDTGTIPSYSRAQQLLLVKLQRLVHRGNREEADSAHHTLRSLRNTLQPEEMLSTSDPRVSPRLSRASFFFGQLLQFVSRSENKYKRMNSNERVRIISGSPLGSLSRSSLDATKLLTEKHEELDPENELSRNLTLIPYSLVRAFHCERRRPVLFTPTMLAKTLVQKLLNSGGAMEFTICKSDIVTRDEFLRKQKTETIIYSREKNPNTFECIVPANIEAVAAKNKHCLLEAGIGCVRDLIKCKVYPIVLLIRVSEKNIKRFRKLLPRPETEEEFLRVCRLKEKELEALPCLYATVEAEMWSSVEELLRVLKDKIVEEQRKTIWVDEDQL
Work on B1 yielded a fold increase of the interaction stoichiometry after T cell activation over that in resting cells [1] of 7 fold, a percent of the available CARMIL2^QE-OST molecules complexed to CARD11 after 2 min of activation [1] of 12% and a fold lower level of complexes in unstimulated Carmil2^QE Cd28-/- CD4+ T cells than in unstimulated Carmil2^QE CD4+ T cells [2] of 2 fold.
